Test results reported in patent US20230138315A1 (JIANGSU HENGRUI MEDICINE, published 2023).

T1: human ANGPTL3(17-170)-Flag-His (human)
T1 chain: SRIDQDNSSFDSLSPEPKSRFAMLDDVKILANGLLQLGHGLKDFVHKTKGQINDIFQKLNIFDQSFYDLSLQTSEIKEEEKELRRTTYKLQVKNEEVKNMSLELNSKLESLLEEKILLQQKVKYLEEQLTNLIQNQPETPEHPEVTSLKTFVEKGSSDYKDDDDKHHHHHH

T2: cynomolgus monkey ANGPTL3(17-460)-His (cynomolgus monkey, UniProt Q9Y5C1 17-460 (human entry), biotin-labelled in the ELISA and HTRF assays (sites not given))
T2 construct: also called full-length cynomolgus monkey ANGPTL3; Cyno ANGPTL3
T2 chain: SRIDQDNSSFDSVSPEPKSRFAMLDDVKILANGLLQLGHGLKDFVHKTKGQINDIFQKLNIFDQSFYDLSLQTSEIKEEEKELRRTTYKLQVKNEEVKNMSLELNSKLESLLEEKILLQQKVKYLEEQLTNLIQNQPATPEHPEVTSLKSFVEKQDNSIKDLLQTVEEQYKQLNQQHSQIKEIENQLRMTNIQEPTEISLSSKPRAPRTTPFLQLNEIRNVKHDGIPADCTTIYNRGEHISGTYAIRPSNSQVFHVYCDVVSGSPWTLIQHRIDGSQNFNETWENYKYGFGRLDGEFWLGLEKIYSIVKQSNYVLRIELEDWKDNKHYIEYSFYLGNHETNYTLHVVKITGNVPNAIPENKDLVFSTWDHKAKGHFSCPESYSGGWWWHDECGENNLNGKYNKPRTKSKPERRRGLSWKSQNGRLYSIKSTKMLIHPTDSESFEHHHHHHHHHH

T3: rat ANGPTL3(17-455)-His (rat, biotin-labelled in the ELISA and HTRF assays (sites not given))
T3 construct: also called full-length rat ANGPTL3
T3 chain: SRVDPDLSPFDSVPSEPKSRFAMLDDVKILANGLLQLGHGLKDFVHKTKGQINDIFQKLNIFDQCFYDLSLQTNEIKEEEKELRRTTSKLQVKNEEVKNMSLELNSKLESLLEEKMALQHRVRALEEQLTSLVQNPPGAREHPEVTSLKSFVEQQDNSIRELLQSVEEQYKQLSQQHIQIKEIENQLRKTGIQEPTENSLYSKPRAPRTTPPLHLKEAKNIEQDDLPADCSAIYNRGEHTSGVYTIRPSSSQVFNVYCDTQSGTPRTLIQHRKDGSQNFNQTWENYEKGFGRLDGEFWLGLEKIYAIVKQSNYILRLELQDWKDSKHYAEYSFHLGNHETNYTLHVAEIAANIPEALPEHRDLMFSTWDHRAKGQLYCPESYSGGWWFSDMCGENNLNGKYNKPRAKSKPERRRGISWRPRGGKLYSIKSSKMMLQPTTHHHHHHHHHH

T4: human-ANGPTL3(17-460)-His (human, UniProt Q9Y5C1 17-460, biotin-labelled (labelling kit, sites not stated))
T4 construct: also called full-length human ANGPTL3
T4 sequence: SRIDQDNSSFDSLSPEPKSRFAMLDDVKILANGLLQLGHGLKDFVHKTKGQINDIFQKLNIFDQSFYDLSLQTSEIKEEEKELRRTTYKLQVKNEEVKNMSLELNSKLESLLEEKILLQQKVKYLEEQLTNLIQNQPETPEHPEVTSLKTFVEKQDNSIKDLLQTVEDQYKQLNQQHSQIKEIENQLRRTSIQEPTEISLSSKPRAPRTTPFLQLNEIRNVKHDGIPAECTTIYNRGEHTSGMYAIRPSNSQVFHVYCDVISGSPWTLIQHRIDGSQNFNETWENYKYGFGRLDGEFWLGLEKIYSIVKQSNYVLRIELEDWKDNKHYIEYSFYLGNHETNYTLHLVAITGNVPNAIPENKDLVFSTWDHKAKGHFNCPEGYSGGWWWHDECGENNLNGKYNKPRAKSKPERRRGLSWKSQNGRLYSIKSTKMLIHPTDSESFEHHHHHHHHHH

T5: mouse ANGPTL3(17-455)-His (mouse, UniProt Q9R182 17-455, biotin-labelled in the ELISA and HTRF assays (sites not given))
T5 construct: also called full-length mouse ANGPTL3
T5 sequence: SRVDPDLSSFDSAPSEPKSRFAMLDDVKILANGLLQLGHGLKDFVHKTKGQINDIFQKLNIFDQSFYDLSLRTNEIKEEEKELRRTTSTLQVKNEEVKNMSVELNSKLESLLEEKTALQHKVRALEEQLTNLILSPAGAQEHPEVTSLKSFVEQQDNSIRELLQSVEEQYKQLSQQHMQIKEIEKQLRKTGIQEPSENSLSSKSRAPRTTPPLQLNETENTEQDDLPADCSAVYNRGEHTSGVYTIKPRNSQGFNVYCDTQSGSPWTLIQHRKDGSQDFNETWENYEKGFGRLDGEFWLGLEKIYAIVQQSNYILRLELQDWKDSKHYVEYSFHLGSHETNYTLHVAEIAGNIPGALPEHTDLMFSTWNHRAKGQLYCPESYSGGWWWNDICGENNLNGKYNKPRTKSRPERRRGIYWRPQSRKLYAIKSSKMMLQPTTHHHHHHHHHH


Columns and labels:
[1] = target: T1, human ANGPTL3(17-170)-Flag-His; experiment: cell-based or functional assay
[2] = target: T2, cynomolgus monkey ANGPTL3(17-460)-His; experiment: HTRF; biotin-labelled antigen with Streptavidin-Tb cryptate
[3] = target: T3, rat ANGPTL3(17-455)-His; experiment: as above
[4] = target: T4, human-ANGPTL3(17-460)-His; experiment: as above
[5] = target: T5, mouse ANGPTL3(17-455)-His; experiment: as above

| Binder | IC50 of blocking the inhibition of bovine LPL enzyme activity by ANGPTL3 [1] [pM] | EC50 [2] [pM] | EC50 [3] [pM] | EC50 [4] [pM] | EC50 [5] [pM] |
| --- | --- | --- | --- | --- | --- |
| P8BG (antibody, human IgG4 S228P, kappa, V domains shown, also called anti-ANGPTL3 antibody P8BG; P8B (variable regions)) VH: QVQLVQSGAEVKKPGASVKVSCKASGYTFTSYDINWVRQAPGQGLEWVGLINPREDSTSYAQKFQGRVTMTRDTSTSTMYMELSSLRSEDTAVYFCARDLGSIREVLYYGMDVWGQGTTVTVSS VL: not shown | 75300 | 360 | 362 | 277 | 321 |
| P3G (antibody, human IgG4 S228P, kappa, V domains shown, also called anti-ANGPTL3 antibody P3G; P3 (variable regions)) VH: QVQLVQSGAEVKKPGASVKVSCKSSGYTFTDYYLHWLRQAPGQGPEWMGWISPNSGGTSYAQKFQGRVTMTRDTSISTAYMELSSLRSDDTAVYYCARDIATLGNFFTYGMDVWGQGTTVTVSS VL: DIQLTQSPSSLSASVGDRVTITCRASQGIRNDLGWYQQKPGKAPKLLIYAASSLQSGVPSRFSGSGSGTDFTLTISSLQPEDFATYYCQQSYSSWTFGQGTKVEIKR | 68900 | – | – | – | – |
